Data reported in publication PMC3985631, “The crystal structure of TDP-43 RRM1-DNA complex reveals the specific recognition for UG- and TG-rich nucleic acids”.

Legend:
TDP-43 hN12 WT [1] = biological target: T1, TDP-43 hN12 WT (human, UniProt Q13148 1-259); assay: filter binding; Filter binding: 50 mM phosphate, 50 mM imidazole, 10 mM beta-mercaptoethanol, pH 7.5, room temperature, 30 min, 10 pmol 32P-labelled nucleic acid; conditions: protein: recombinant; chain copies: 2; label: 5'-32P
TDP-43 hN12 WT [2] = biological target: T1, TDP-43 hN12 WT; assay: filter binding; 2 uM protein; Filter binding: 50 mM phosphate, 50 mM imidazole, 10 mM beta-mercaptoethanol, pH 7.5, room temperature, 30 min, 10 pmol 32P-labelled nucleic acid; conditions: protein: recombinant; chain copies: 2
TDP-43 RRM1 (hRRM1) WT [3] = biological target: T2, TDP-43 RRM1 (hRRM1) WT (human, UniProt Q13148 101-191); assay: crystal structure 2.75 A; Filter binding: 50 mM phosphate, 50 mM imidazole, 10 mM beta-mercaptoethanol, pH 7.5, room temperature, 30 min, 10 pmol 32P-labelled nucleic acid; conditions: protein: recombinant; tags: N-terminal His (pQE30)
T2 sequence (Q13148 101-191): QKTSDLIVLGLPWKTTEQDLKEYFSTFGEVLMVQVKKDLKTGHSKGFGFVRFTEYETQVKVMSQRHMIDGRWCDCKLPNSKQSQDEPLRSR

TDP-43 RRM1 (hRRM1) WT [4] = biological target: T2, TDP-43 RRM1 (hRRM1) WT; assay: filter binding; Filter binding: 50 mM phosphate, 50 mM imidazole, 10 mM beta-mercaptoethanol, pH 7.5, room temperature, 30 min, 10 pmol 32P-labelled nucleic acid; conditions: protein: recombinant; tags: N-terminal His (pQE30); label: 5'-32P

T1 sequence (Q13148 1-259): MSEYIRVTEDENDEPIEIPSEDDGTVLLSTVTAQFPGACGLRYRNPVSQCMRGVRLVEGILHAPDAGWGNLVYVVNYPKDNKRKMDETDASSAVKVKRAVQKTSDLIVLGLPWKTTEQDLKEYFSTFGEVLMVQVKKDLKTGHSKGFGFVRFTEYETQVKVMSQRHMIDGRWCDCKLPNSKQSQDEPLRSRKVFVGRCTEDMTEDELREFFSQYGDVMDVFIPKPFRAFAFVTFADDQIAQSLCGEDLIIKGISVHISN

Binder	binding signal (TDP-43 hN12 WT [2]) [% bound]	also measured
UGUGUGUGUGUGUGUGUGUGUGUGUGUGUG (ssRNA) [(UG)15 RNA]	–	Kd (TDP-43 hN12 WT [1]): 5.3 ± 1.2 nM
CGCGUGCCCCUG (ssRNA) [PS2]	6.2 ± 0.8	–
CACACACACACA (ssRNA) [(CA)6 RNA]	0.6 ± 1	–
UGUGUGUGUGUG (ssRNA) [(UG)6 RNA]	67.9 ± 1.9	–
GTTGAGCGTT (ssDNA, 2'-methylseleno-adenosine at A5) [10-nt Se-labelled ssDNA]	–	binding result (TDP-43 RRM1 (hRRM1) WT [3]): binds
AGAGUGAAAAUG (ssRNA) [PS1]	23.1 ± 0.8	–
TGTGTGTGTGTGTGTGTGTGTGTGTGTGTG (ssDNA) [(TG)15 DNA]	–	Kd (TDP-43 RRM1 (hRRM1) WT [4]): 20.6 ± 1.8 nM
